{"source": "patent US20240101667A1", "about": "“METHODS FOR IDENTIFYING LILRB-BLOCKING ANTIBODIES” (THE BOARD OF REGENTS OF THE UNIVERSITY OF TEXAS SYSTEM, priority 2020, published 2024)", "molecules": {"B1": {"name": "anti-LILRB3 #1 N297A: IgG #1 with Fc glycosylation N297A mutation, defective Fc-mediated effector functions (antibody, V domains shown)", "VH": "EVQLVESGGGVVQPGRSLRLSCAASGFTFSSYGMHWVRQAPGKGLEWVAFIRYDGSNKYYADSVKGRFTISRDNSKNTLYLQMNSLRAEDTAVYYCAKAGFSGWYYYGMDVWGQGTMVTVSS", "VL": "DIVMTQSPSSLSASVGDRLTITCRASQSISTYLNWYQQKPGKAPKLLIYGASSLQSGVPSRFSGSGSGTDFTLTISSLQPEDFATYFCQQSYGLPLTFGGGTKVDIK"}}, "test": "Myeloid LysM-Cre driven LILRB3-transgenic C57BL/6 mice, hematopoiesis", "type": "in vivo, mouse", "description": "FIGS. S7A-C. […] (FIG. S7a) Schematic of generation of myeloid-specific LILRB3 transgenic mice. (FIGS. S7b-c) LILRB3 is expressed on myeloid cells in peripheral blood (PB), spleen (SPL) and bone marrow (BM) of LysM-Cre driven LILRB3 transgenic mice, which were treated by anti-LILRB3 #1 antibody (n=2 mice) or IgG (n=3 mice). Shown are representative flow cytometry plots (FIG. S7b) and result summary (FIG. S7c).\nLILRB3 transgenic mice. LILRB3 cDNA was constructed into pR26 CAG AsiSI/MluI. Then the plasmid was purified with high concentration in the absence of endotoxin. Cas9 RNA, gRNA targeting mouse Rosa26 locus and the LILRB3 plasmid co-injected into mouse oocytes at the transgenic core facility of UTSW. The LILRB3 positive mice were identified by LILRB3 specific primers and crossbred with LysMcre mice (JAX, 004781). The LILRB3^+LysMcre^+ mice were analyzed with co-expression of LILRB3 and Mac-1 or Gr-1 in peripheral blood, spleen and bone marrow.", "data": [{"molecule": "B1", "values": [{"measurement": "normal hematopoiesis and leukocytosis", "setting": "LILRB3 transgenic mice", "value": "did not affect normal hematopoiesis and leukocytosis"}, {"measurement": "toxicity", "setting": "suggested from the transgenic mice", "value": "low toxicity"}]}]}
